Assay results from PMC3229523, “Identification of Lactoferricin B Intracellular Targets Using an Escherichia coli Proteome Chip” (PLoS ONE, 2011).
Ends that are not written are not given here. * marks the point of attachment. Biotin = O=C1N[C@H]2[C@H](CS[C@H]2CCCCC(=O)*)N1

Experiments:
Assay in all cases: peptide or protein array; E. coli proteome chip: purified His-tagged proteins printed in duplicate on Fullmoon slides, blocked with 1% BSA; 10 nM N-terminal biotinylated LfcinB with 1% BSA, room temperature, 1 h; detected with DyLight 649-labeled streptavidin, ratio to DyLight 549-labeled anti-His antibody; ProCAT normalisation, local cut-off; triplicate chips
Details in all cases: both partners purified
WcaL = target: T1, WcaL (E. coli K-12, UniProt P71243 1-406)
T1 construct: WcaL, E. coli K-12
T1 sequence (looked up): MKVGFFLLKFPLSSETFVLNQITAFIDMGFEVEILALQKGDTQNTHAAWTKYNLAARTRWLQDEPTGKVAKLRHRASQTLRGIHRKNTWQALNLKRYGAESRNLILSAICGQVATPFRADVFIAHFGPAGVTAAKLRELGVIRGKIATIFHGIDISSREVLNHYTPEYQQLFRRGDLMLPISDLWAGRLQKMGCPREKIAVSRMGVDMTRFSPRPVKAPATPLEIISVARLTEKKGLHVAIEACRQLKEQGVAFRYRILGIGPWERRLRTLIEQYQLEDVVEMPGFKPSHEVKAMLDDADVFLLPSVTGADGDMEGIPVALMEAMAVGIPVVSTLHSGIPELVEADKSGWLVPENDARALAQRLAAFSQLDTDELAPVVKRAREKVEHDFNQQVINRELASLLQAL

YdcC = target: T2, YdcC (E. coli K-12, UniProt P28917 1-378)
T2 construct: YdcC, E. coli K-12
T2 sequence (looked up): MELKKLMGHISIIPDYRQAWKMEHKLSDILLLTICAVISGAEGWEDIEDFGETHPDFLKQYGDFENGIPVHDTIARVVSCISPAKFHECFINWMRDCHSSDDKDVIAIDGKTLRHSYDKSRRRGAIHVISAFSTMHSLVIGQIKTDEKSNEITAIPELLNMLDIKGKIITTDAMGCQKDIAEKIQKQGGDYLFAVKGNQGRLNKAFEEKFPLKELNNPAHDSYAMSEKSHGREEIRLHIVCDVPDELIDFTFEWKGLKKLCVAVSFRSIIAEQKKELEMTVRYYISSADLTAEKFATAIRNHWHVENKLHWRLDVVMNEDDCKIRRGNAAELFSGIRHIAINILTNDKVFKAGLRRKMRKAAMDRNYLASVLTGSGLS

YhaJ = target: T3, YhaJ (E. coli K-12, UniProt P67660 1-298)
T3 construct: YhaJ, E. coli K-12
T3 sequence (looked up): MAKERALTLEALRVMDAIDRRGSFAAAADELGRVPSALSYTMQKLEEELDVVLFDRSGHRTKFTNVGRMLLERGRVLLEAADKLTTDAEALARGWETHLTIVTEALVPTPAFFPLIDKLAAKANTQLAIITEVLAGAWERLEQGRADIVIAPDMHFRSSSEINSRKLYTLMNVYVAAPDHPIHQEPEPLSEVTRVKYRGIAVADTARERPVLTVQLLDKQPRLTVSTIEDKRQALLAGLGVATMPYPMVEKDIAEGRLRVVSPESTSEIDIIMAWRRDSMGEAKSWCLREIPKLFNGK

HyaF = target: T4, HyaF (E. coli K-12, UniProt P19932 1-285)
T4 construct: HyaF, E. coli K-12
T4 sequence (looked up): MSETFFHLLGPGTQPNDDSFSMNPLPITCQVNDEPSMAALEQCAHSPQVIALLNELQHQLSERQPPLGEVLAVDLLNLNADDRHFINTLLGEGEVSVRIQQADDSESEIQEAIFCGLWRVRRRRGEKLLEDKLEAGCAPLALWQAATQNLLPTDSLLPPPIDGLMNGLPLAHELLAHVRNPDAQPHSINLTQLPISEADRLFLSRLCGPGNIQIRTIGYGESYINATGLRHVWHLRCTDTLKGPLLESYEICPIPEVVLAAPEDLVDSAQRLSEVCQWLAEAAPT

YibN = target: T5, YibN (E. coli K-12, UniProt P0AG27 1-143)
T5 construct: YibN, E. coli K-12
T5 sequence (looked up): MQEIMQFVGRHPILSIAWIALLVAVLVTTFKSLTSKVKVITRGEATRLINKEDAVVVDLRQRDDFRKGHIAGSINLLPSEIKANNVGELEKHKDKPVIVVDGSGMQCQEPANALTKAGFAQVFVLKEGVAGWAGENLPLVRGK

SfmH = target: T6, SfmH (E. coli K-12, UniProt P75715 25-327)
T6 construct: SfmH, E. coli K-12
T6 sequence (looked up): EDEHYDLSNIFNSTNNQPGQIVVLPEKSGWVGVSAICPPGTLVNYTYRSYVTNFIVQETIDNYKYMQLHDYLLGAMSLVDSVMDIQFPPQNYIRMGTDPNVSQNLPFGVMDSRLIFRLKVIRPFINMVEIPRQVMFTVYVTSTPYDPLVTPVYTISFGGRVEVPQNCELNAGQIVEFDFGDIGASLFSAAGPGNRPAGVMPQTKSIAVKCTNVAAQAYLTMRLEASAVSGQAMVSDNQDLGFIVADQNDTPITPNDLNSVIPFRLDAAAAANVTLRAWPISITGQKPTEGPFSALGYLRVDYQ

Measured: binding result

B1: N-terminal biotinylated Lactoferricin B (peptide, UniProt P24627 36-60, looked up)
peptide: Biotin-FKCRRWQWRMKKLGAPSITCVRRAF
modifications: ends and bridges not checked
notes: lactoferricin B (LfcinB), cationic antimicrobial peptide of 25 amino acids; also called biotinylated LfcinB; biotin-labeled LfcinB; source: bought: Kelowna Inc
binds: all assays above
